Assay results as given in EP4803151A2 (Lepu Biopharma Co., Ltd., dated 2026).

T1: ECD of human DLL3 protein fused with his tag (Acro Bio, Cat. No. DL3-H52H4) (human, UniProt Q9NYJ7 27-492)
T1 construct: range 27-492; Bought protein; also called hDLL3-his; human DLL3-his protein; not shown: his tag
T1 sequence (looked up): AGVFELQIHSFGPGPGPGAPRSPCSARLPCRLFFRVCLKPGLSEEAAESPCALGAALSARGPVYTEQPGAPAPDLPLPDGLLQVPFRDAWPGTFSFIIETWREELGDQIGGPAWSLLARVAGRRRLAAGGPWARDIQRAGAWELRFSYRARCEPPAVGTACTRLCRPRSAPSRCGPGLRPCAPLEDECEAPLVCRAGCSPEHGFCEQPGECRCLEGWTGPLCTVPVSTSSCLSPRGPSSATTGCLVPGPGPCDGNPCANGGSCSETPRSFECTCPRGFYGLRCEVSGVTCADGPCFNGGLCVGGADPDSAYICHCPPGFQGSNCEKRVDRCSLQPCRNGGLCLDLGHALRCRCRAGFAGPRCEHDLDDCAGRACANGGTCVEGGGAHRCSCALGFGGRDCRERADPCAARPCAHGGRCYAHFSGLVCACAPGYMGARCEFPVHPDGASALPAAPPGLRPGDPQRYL

T2: human DLL1 his tag fusion protein (Sino Biological, Cat. No. 11635-H08H) (human, UniProt O00548 18-540)
T2 construct: Bought protein; also called hDLL1-his; hDLL1 protein; not shown: his tag
T2 sequence (looked up): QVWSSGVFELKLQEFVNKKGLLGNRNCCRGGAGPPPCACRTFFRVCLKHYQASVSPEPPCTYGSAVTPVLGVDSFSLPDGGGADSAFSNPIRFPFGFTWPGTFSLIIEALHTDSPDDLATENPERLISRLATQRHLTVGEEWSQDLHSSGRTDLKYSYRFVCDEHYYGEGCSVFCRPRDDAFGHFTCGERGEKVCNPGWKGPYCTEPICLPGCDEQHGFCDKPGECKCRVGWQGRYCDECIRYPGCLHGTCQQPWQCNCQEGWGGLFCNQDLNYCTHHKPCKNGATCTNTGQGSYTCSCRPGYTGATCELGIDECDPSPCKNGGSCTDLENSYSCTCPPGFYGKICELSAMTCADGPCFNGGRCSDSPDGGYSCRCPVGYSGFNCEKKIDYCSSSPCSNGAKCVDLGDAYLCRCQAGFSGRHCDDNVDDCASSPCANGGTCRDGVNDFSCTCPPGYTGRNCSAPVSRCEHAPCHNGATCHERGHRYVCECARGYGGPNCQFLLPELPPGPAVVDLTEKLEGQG

T3: human DLL3 endogenously expressed on SCLC tumor cell lines SHP77 and NCI-H82 (human, UniProt Q9NYJ7 27-618)
T3 construct: whole, on cells; also called human DLL3 expressed on tumor cells
T3 sequence (looked up): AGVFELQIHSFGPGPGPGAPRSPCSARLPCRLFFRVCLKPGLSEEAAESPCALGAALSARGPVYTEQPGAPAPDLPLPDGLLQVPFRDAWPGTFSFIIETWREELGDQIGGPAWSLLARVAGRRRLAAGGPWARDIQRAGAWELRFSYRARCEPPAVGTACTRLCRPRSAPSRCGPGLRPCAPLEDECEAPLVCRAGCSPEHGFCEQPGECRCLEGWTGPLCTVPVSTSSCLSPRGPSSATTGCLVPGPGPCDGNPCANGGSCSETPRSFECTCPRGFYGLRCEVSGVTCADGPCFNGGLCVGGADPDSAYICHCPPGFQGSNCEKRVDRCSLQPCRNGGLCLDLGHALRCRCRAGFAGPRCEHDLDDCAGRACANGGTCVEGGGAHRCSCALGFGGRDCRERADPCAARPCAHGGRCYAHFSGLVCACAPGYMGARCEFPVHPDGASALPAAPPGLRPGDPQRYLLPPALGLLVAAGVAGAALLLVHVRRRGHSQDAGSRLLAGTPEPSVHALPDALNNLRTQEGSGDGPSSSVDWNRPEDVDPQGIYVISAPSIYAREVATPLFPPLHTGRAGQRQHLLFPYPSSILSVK

T4: human full length DLL1 expressed on CHO-K1 cells (human, UniProt O00548 18-723)
T4 construct: whole, on cells; also called CHO-K1-hDLL1
T4 sequence (looked up): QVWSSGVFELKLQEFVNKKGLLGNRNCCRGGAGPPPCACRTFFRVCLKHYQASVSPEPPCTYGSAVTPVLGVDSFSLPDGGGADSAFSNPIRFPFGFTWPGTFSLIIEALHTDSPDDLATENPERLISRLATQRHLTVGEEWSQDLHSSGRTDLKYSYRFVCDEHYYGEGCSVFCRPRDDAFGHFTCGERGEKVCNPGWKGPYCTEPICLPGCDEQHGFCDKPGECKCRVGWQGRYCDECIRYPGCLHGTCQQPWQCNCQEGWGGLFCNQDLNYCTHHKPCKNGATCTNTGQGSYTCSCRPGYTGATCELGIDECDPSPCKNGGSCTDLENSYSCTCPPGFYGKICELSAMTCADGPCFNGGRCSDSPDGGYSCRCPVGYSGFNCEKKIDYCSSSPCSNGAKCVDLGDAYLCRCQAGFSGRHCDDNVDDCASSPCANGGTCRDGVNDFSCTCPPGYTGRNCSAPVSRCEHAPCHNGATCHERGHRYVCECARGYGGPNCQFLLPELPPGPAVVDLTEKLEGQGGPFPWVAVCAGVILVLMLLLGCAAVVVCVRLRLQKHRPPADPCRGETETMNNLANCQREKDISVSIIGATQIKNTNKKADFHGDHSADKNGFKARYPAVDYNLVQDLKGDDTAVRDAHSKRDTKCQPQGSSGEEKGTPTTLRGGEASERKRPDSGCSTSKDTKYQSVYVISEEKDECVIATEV

T5: mouse DLL3 his tag protein (KACTUS, Cat. No. DLL-MM103) (mouse, UniProt O88516 33-490, limits assumed)
T5 construct: Bought protein; also called mDLL3-his; mouse DLL3 protein; not shown: his tag
T5 sequence (looked up): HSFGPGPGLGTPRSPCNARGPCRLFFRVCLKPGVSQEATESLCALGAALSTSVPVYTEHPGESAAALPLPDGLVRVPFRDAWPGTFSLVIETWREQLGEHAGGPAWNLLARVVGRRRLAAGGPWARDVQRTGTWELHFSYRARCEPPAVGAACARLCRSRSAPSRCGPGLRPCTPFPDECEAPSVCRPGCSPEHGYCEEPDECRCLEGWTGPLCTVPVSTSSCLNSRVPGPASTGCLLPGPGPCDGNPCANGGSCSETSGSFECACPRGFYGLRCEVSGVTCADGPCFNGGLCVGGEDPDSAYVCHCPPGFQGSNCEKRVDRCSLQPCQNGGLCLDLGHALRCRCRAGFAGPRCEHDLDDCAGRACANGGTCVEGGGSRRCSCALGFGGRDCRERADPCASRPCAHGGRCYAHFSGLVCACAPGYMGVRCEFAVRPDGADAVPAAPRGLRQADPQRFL

T6: ECD of human DLL3 over-expressed on HEK293 cells (human, UniProt Q9NYJ7 27-492)
T6 construct: extracellular domain; also called HEK293-hDLL3; human DLL3 expressed on HEK293 cells
T6 sequence (looked up): T1 sequence (looked up)

B1: 129H2B9-hIgG1 chimeric antibody (antibody, V domains shown)
VH: EVNLEESGGGLVQPGGSMKLSCVVSGFTFSNYWMSWVRQSPEKGLEWVAEIRLKSDNYATHYAESVKGKFTISRDDSKSRLYLQMNSLRPEDTGIYYCTSNRFAYWGQGTLVTVSA
VL: NIVMTQSPKSVSMSVGERVTLSCKASENVGTYVYWYQQKPEQSPKMMIYGASNRYTGVPDRFTGSGSATDFTLTIRSVQAEDLADYHCGQSYSYPFTFGSGTKLEIKR
B2: 148C3A7-hIgG1 chimeric antibody (antibody, V domains shown)
VH: EVQLQQSGPELIKPGTSVKMSCKASGYTFTTYLMHWVKQKPGQGLEWIGYINPYNDVTEYHEKFKDKATLTSDKSSSTAYMELSSLTSEDSAVYYCARLGGYGPGWYLDVWGAGTTVTVSS
VL: DIQMTQSPASLSASVGETVTITCRASGSIHNYLAWYLHKQGKSPQLLVYNAKTLADGVPSRFSGSGSGTQYSLKINSLQPEDFGSYYCHHFWSTPWTFGGGTKLEIKR
B3: 310P3C5-hIgG1 chimeric antibody (antibody, V domains shown)
VH: EVQLQQSGPELVKPGASVKISCKASGYTFTDFYMNWVKQTHGKSLEWIGDANPNNGGTTHNPRFKGQATLTVDKSSNTAYMELRSLTSEDSAVYYCARGGLPGDFDYWGQGTTLTVSS
VL: DIQMTQSSSSFSVSLGDRVTITCKASEDIYNRLAWYQQKPGNAPRLLISGVTSLETGVPSRFSGSGSGKDYTLSITSLQTEDVATYYCQQYWSFPWTFGGGTKLEIKR
B4: 362H3D3-hIgG1 chimeric antibody (antibody, V domains shown)
VH: EVQLQQSGPELLKPGASVKISCKASGYTFTDYTMHWVKQSHGRSLEWIGGIHPNYGGTSYNEKFKDKATLTVDKSSSTAYMEFRSLTSEDSAVYYCARWGYYGGSYWYFDVWGTGTTVTVSS
VL: DIQMTQSPASLSVSVGETVTITCRASENIYSNLAWYQQKQGKSPQLLVYAATNLADGVPSRFSGSGSGTQYSLKINSLQSEDFGSYYCQHFWGTPYTFGGGTKLEIKR
B5: 9E8D8-hIgG1 chimeric antibody (antibody, V domains shown)
VH: QVQLQQSGAELVRPGASVKLSCKALGYTFTDSEIHWVKQTPVHGLEWIGAIHPRNGGTAYNQKFRGKATLSADRSSNTAYMELSSLTSEDSAVYYCSRGYFLDYWGQGTSVTVSS
VL: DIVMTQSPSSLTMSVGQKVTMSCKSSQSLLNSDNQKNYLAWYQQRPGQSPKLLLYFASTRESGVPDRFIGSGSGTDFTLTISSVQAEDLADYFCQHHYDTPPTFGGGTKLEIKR
B6: 36B7F3-hIgG1 chimeric antibody (antibody, V domains shown)
VH: QVQLQQSGPELVKPGASVKISCRASGYTFTDHHLNWVKQRPGQGLEWIGWIFPGSGSDYYNERFKDKATLTVDKSSSTAYMLLSSLTSEDSAVYFCERWDYWGQGTTLTVSS
VL: QIVLTQSPTIMSASPGEKVTMTCSASSSISYMHWYQQKPGTSPKRWIYDTSTLASGVPARFSGGGSGTSYSLTISSMEAEDAATYYCHQRSSYPLTFGAGTKLELKR

target: T1, ECD of human DLL3 protein fused with …; experiment: SPR, Biacore 8K, antibody captured on Protein A chip, single dose of human DLL3-his

Does B1 bind?
Result: binds

Does B2 bind?
Result: binds

Does B3 bind?
Result: binds

Does B4 bind?
Result: binds

target: T7, human DLL4 his tag fusion protein (Sino Biological, Cat. No. 10171-H08H) (human, UniProt Q9NR61 27-524); experiment: ELISA, hDLL4-his coated at 1 ug/mL
T7 construct: Bought protein; also called hDLL4-his; hDLL4 protein; not shown: his tag
T7 sequence (Q9NR61 27-524 limits assumed): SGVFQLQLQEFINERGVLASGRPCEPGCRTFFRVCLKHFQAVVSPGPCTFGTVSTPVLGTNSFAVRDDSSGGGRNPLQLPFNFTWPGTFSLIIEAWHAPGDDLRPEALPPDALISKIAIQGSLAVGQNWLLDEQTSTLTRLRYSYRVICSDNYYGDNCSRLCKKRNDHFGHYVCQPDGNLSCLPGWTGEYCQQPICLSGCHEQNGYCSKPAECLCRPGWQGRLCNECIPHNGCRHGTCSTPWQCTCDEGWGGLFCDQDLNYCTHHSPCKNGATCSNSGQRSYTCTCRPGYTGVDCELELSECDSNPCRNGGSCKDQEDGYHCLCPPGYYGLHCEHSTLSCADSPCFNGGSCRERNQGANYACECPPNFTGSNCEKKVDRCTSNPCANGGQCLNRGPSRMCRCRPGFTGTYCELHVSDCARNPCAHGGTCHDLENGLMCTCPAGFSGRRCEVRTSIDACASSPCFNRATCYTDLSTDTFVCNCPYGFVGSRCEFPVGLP

Does B5 bind?
Result: no binding (tested: up to 100 nM)

Does B6 bind?
Result: no binding (tested: up to 100 nM)

Does B1 bind?
Result: no binding (tested: up to 100 nM)

Does B2 bind?
Result: no binding (tested: up to 100 nM)

Does B3 bind?
Result: no binding (tested: up to 100 nM)

Does B4 bind?
Result: binds

target: T1, ECD of human DLL3 protein fused with …; experiment: ELISA, hDLL3-his coated at 1 ug/mL

Does B5 bind?
Result: binds

Does B6 bind?
Result: binds

target: T2, human DLL1 his tag fusion protein (Sino …); experiment: ELISA, hDLL1-his coated at 1 ug/mL

Does B5 bind?
Result: no binding (tested: up to 100 nM)

Does B6 bind?
Result: no binding (tested: up to 100 nM)

Does B1 bind?
Result: no binding (tested: up to 100 nM)

Does B2 bind?
Result: no binding (tested: up to 100 nM)

Does B3 bind?
Result: no binding (tested: up to 100 nM)

Does B4 bind?
Result: binds

target: T3, human DLL3 endogenously expressed on …; experiment: flow cytometry on SHP77 and NCI-H82 cells

Does B5 bind?
Result: binds

Does B6 bind?
Result: binds

Does B2 bind?
Result: binds

Does B3 bind?
Result: binds

Does B4 bind?
Result: binds

target: T4, human full length DLL1 expressed on …; experiment: flow cytometry on CHO-K1-hDLL1 cells

Does B5 bind?
Result: no binding (tested: highest dose level 100 nM)

Does B6 bind?
Result: no binding (tested: highest dose level 100 nM)

Does B1 bind?
Result: no binding (tested: highest dose level 100 nM)

Does B2 bind?
Result: no binding (tested: highest dose level 100 nM)

Does B3 bind?
Result: no binding (tested: highest dose level 100 nM)

Does B4 bind?
Result: binds

target: T5, mouse DLL3 his tag protein (KACTUS, …); experiment: ELISA, mDLL3-his coated at 1 ug/mL

Does B5 bind?
Result: binds

Does B6 bind?
Result: binds

Does B1 bind?
Result: binds

Does B2 bind?
Result: binds

Does B3 bind?
Result: binds

Does B4 bind?
Result: binds

target: T6, ECD of human DLL3 over-expressed on …; experiment: flow cytometry on HEK293-hDLL3 cells

Does B5 bind?
Result: binds

Does B6 bind?
Result: binds

Does B1 bind?
Result: binds

Does B2 bind?
Result: binds

Does B3 bind?
Result: binds

Does B4 bind?
Result: binds
